Test results taken from the nanobody polyreactivity screen of Harvey et al. (2022).

Assay: yeast display, Sf9 membrane polyspecificity reagent, FACS + sequencing; frameworks hold sequencing errors
Outline: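 Nanobodies came from a synthetic yeast display library in Saccharomyces cerevisiae BJ5465, induced with galactose for 36–48 hours and stained for 1 hour at 4 °C with 10% biotinylated, detergent-solubilized Sf9 membrane reagent. Cells were enriched on streptavidin microbeads and then FACS-sorted, with low and high (top ~1%) gates set on anti-HA fluorescence for expression and streptavidin fluorescence for reagent binding. Each polyreactivity label reflects the gate a clone came from. Genes were amplified by colony PCR, sequenced by MiSeq 2 × 250 and filtered by CDR length.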

QVQLVESGGGLVQAGGSLRLSCAASGRIFYFNAMGWYRQAPGKERELVAAISWRGGSTYYADSVKGRFTISRDYAKNTVYLQMNSLKPEDTAVYYCNAVLWGYWPGYDYWGQGTQVTVSS
polyreactivity (PSR sort gate): high polyreactivity

QVPLVESGGGLVQAGRSLRLSCAASGITFRHNTMGWYRQAPGKERELVSTNYADSVKGRFTFSRDNAKNTVYLQMNSLKPEDTAVYYCNADGTFESDYWGQGTQVTVSS
polyreactivity (PSR sort gate): low polyreactivity

QVQLVDSGGGLVQAGGSLRLSCAASVRIFTINAMGWYRPAPGKDRELVAAISDGGGSTYYADSVKGRFTISRYNAKNTVYLQMNSLKPEDTAVYYCARKSWPKERRVDPGYDYGGQGTQVTVSS
polyreactivity (PSR sort gate): low polyreactivity

QVQLVESGGGLVQAGGILRLSCAASGSIFGLYAMVWYRQAPGKERELVAAISPRGGSTYYADSVKGRFTISRDNAKNTVYLQMNILKPEDTAVYYCNRDYIRYALGHDYWGQGPQVTVSS
polyreactivity (PSR sort gate): high polyreactivity

QVQLVESGGGIVQAGGSLRLSCAASGSSHGYAMGWYRQAPGKERELVAAISLNTGSTYYADSVNGRFTISRDNAKNTVYLQMNSLKPEDTAVYFCNADDYTYATYEYDYWGQGTQVTVSS
polyreactivity (PSR sort gate): low polyreactivity

QVHLQESGGGLVQAGGSLRLSCAASGTITVLYKMGWFRQAPGKEREFVASINYGTSTYYADSVKGRFTVSRDSAKNTVYLQMNSLKPEDTAVYYCAAAYRWQDVYRYWGQGTQVTVSS
polyreactivity (PSR sort gate): low polyreactivity

QVQLVESGGGLVQAGGSLRLSCAPSGRTFRTNTMGWYRQAPGKESELVAAINWRGGSTYYADSVKGRFTISRDNAKNTVYLQMNSLKPEDTAVYYCNAQQGRYKYSGRYDYWGQGTQVTVSS
polyreactivity (PSR sort gate): low polyreactivity

QVQLVESGGGLVQAGGSLRLSCAASGSTFSPYAMGWYRQAPGKDRELVAAISYDGASTYYADSVKGRFTISRDNAKNTVYLQMISLKPEDTAVYYCAADYFRSYEGTYWVVASYYYWGQGTQVTVSS
polyreactivity (PSR sort gate): low polyreactivity

QVQLVETEVGLDQAGGSLPLSCAASGYTFWAYAMGWYRQSPGKERELVAGISSRGSRTYYADSVKGRFTISRDNAKNTVYLQMNSLKPEDTAVYYCNALRTPPGYYPPFDYWGQGTQVTVSS
polyreactivity (PSR sort gate): high polyreactivity

QVQLVESGGGLVQAGGSLRLSCAASGRTFYSYAMGWYRQAPGKERELVAAISRGGNTYYADSVKGRFTISRDNAKNTVYLQMNSLKPEDTAVYYCAVVRVTYYASIYHRGYDYWGQGTQVTVSS
polyreactivity (PSR sort gate): low polyreactivity

QVQLVESGGGLVQAGGSLRLSCAASGSTFRINAMGWYRQAPGKERELVAAITRGGSTNYADSVKGRFTISRDNAKNTVYLQMNSLKPEDTAVYYCAAGLYSWSGYASYNSAYGYWGQGTQVTVSS
polyreactivity (PSR sort gate): low polyreactivity

QVQLVESGGGLVLPGGSLRLSCAASGSTLYPYAMGWYRQAPGKERELVAAITYGGTSTYYADSVKGRFTISRDNAKNTVYLQMNSQKPEDTALYYCAARGGTTIRYDYWGQGTQVTVSS
polyreactivity (PSR sort gate): high polyreactivity

QVQLQGSGGGLVQAGGSLRMSCAASAYIFQNVPKGLNRKEPGKERELVAGIDNGTSTNYADSVNGRFTISRDNAKNSVYLEMKSLKPVDTAVYYCAAAGQADDTLGYWGQGTQVTVSS
polyreactivity (PSR sort gate): low polyreactivity

QVQLVESGGGLVQAGGSLRLSCAASGFTFYNNAMGGYRQAPGKERELVAVITSNGGRTYYADSVKGRFTISRDNAKNTVYLQMNSLKPEDTAVYYCAKRGYGYGDGAYYYWGQGTQVTVSS
polyreactivity (PSR sort gate): low polyreactivity

QVQLVESGGGLVQAGASLRLSCAASGSIFVRNAMGWYRQAPGKERELVAAISKRGTSTYFADSVKGRFTISRDNAKNTVYLQMNSLKPEDTAVYYCNAVLSNSRSYLIRLDYWGQGTQVTVSS
polyreactivity (PSR sort gate): high polyreactivity

QVQLVESGGGLVQAGGSLRLSCASSVRIFGSNVMGWYRQAPGKERELVASISSGGNTYYADSVKGRFTISRDNAKNTVYLQMNSLKPEDTAVYYCAARRGSAGQWYDYWGQGTQVTVSS
polyreactivity (PSR sort gate): high polyreactivity

QVQLVESGGGLVQAGGSLRLSCADSGSTSYRYAMGRYRQSPGKERELVAVITSGSSTYYADSVKGRFTISRDNAKNTDYLQINSLKPEDTAVYYCAVGRTYRRYSAASYNYWGQGTQVTVSS
polyreactivity (PSR sort gate): high polyreactivity

QVQLVESGGGLVQAGGSLRLSCAASGLIFYRNAMGRTRQAPGKERELVAAISASGGRTYYADSVKGRFTISRDTEKNTVYLPMNSLKPEDTAVYYCAAKSLLLSMDYWGQGTQVTVSS
polyreactivity (PSR sort gate): high polyreactivity

QVQLVESGGGLVQAGGSLRLSCAASGFTFSYYAMGWYRQAPGKERELVAAITSSGARTYYADSVKGRFTISRDNAKNTVYFQMNSLKPEDTAVYYCAAEVFRTRTWEYYYWGQGTQVTVSS
polyreactivity (PSR sort gate): high polyreactivity

QVQLEESGGSLVQAGGSLRLSCAASGRTFTVNDMGWYRQAPGKERELVADIRGSGVSTSYADSVKGRFTISRDNAKNTVYLQMNSLKPADTAVYYCATDPVKSGYQRYYYWGQGTHVTVSS
polyreactivity (PSR sort gate): low polyreactivity

QVQLVESGGGLVQAGGSLRLSCAASGSIFFTYAMGWYRQEPGKERELVAAINSSGGSTYYADSVKGRFTISRDNAKNTVYLQMNSLKPEDTAVYYCAAYRYWSTPRYYWGQGTQVTVSS
polyreactivity (PSR sort gate): high polyreactivity

QVQLVESGGGLVQAGGSLRLSCAASGSKFWGYAMGWYRKAAGKERELVAAITDSGGRTYYADSVKGRFTISRDNEKNTVYLQMNSLKPEDTAVYYCAADYYSQYYYYAVPDRDYWGQGTQVTVSS
polyreactivity (PSR sort gate): low polyreactivity

QVQLVESGGGLVQAGGSLRLSCAASGSIFNGNARGWYRQAPGKERELVAAITRRGGRTYYADSVKGRFTISRDNEKNTVYLQMNSLQPEDTAFYYCATPVDYKTGYYYWVQGTQVTVSS
polyreactivity (PSR sort gate): high polyreactivity

QVQLVESGGGLVQAGGSLRLSCAASGSIFVFYDMGWYRQAPGKERELVATISSGGGGTYYTDSVKGRFTISRDNAKNTVYLQLNSLKPEDTAVYYCAAEGDKYGKGYGYWGQGTQVTVSS
polyreactivity (PSR sort gate): low polyreactivity

QVQLVESGGGLVQAGGSLRLSCAASGFTFLGYDMGWYRQAPGKERELVATISSGGRTYYADSVKGRFTISRDNAKNTVYLQMNSMKPEDTAVYYFAAPRFRRLDFDFWGQGTQVTVSS
polyreactivity (PSR sort gate): low polyreactivity

QVQLVESGGGLVQAGGSLRLSCAASGSTIRKYAMGWYRQAPGKERELVAAISARGGSTYYADSVKGRFTISRDNAKNTVYLQMNSLNPEDTAVYYCAADGYRPYSTFDYWGQGTQVTVSS
polyreactivity (PSR sort gate): high polyreactivity

QVQLVESGGGLVEAGGSLRLSCAAYGRTFDYYDMGWYRPAPGKERELVAGITVSSGGTNYADSVKGRFTISRDNAKNTVYLQMNSLNPEDTAVYYCADANYDFYAFDSTYRYNYWGQGTQVTVSS
polyreactivity (PSR sort gate): low polyreactivity

HVQLVESGGGLVQAGGSLRLSCAASGRIFRYAMAWYRQAPGNETELVAAISSSGGGTYYADSVKGRFTISRDNAKNTVNLQMNSLKREDTAVYYCIAEYGWRFDYWGQGTQVTVSS
polyreactivity (PSR sort gate): high polyreactivity

QVQLVESGGGLVQAGGSLRLSCAASGSIFTAYDMGWYRQAPGKERELVAAINVSAGTTYYADSVKGRFTISRDNAKNTVYLQMNSLKPEDTAVYYCAATFGGWGYVYVHYYYWGQGTQVTVSS
polyreactivity (PSR sort gate): high polyreactivity

QVQLVESGGGLVQAGGSLRFSCAASGFTFVINDMGWYRQAPGKERELVADITSGGDTYYADSVKGRFTISRDNAKNTVYLQMNSLKPEDTAVYYCAADIYPDWIYLLYGYWGQGTQVTVSS
polyreactivity (PSR sort gate): low polyreactivity

QVQLVESGGGLVQAGGSLRLSCAASGLTFSDYAMGWYRQAPGKERAFVAAITRNGGSTRYADSVKGRFTISRDNAKITVYLQMHSLKPEDTAVYYCATDVGFGRKQRPHRPGYGYWGQGTQVTVSS
polyreactivity (PSR sort gate): low polyreactivity

QVQLVESGGGLVQAGGSLRLSCAASGRIFYWYAMGWYRQAPGKERELVAAISSAGTTYYADSVKGRFTISRDNAKNTVYLQMNSLKPEDTAVYYCAATLGFYRRSEYDYWGQGTQVTVSS
polyreactivity (PSR sort gate): high polyreactivity

QVQLVESGGGLVQAGGSLRLSCAASGRTFAIYAMGWYRPAPGKEREFVAAISWSGGDTYYADSVKGRFTISRDNAKNTVYLQMNSLKPEDTAVYYCAARDYDYEGRDLQYELDYWGQGTQVTVSS
polyreactivity (PSR sort gate): low polyreactivity

QVQLVESGGGLVQAGGSLRLSCAASGFTSNYYAMGWYRQAPGKERELVAAITTGGSTHYADSVKGRFTISRDNAKNTVYLQMNSLKPEDTAVYYCAAGTNRQQQRYFHHGGYYQYNYWGQGTQVTVSS
polyreactivity (PSR sort gate): low polyreactivity

QVQLVESGGGLVQAGGSLRLSCAASGSIFRPYAMGWYRQAPGKERELVAAIRGGGTYYADSVKGRFTISRDNAKNTVYLQMNSLKPEDTAVYYCAQYRYSYYYWGQGTQVTVSS
polyreactivity (PSR sort gate): high polyreactivity

QVQLVESGGGLVQAGGSLRLSCAASGFTFKYYAMGWYRQAPGKEREFVAAISRSGGSTTYADSVKGRFTISRDNAKNTVYLQMNSLKPEDSAVYYCAVAYYTAYTPRDGEYWGQGTQVTVSS
polyreactivity (PSR sort gate): high polyreactivity

QVQLVESGGGLVQAGGSLRLSCAASGRILGSYAMGWYRQAPGKERELVAGISWRGGRTYYADSVKGRFTISRDNAKNTVYLQLNSLKPEDTAVYYCATRSSSRKYGYWGQGTQVTVSS
polyreactivity (PSR sort gate): high polyreactivity

QVQLVESGGGLVQAGGSLRLSCAASGRTFYFNTLGWERQAPGKERELVAAISSGVNTYYADSVKGRFTISRDNAKTTVYLQMNSLKPEDTAVYYCNADYIHTGDYLWYFLYDYWGQGTQVTVSS
polyreactivity (PSR sort gate): high polyreactivity

QVQLVESGGGLVQAGGSLRLSCAASGNIFSWYAMGWYRQAPGKERELVAAITSGGITYYADSVKGRFTISRDNAKNTVYLQMNSLKPEDTAVYYCNIDVGFTRPLYYWGQGTQVTVSS
polyreactivity (PSR sort gate): low polyreactivity

QLQLVESGGGLVQAGGSLRLSCAASGSTFPTNAMGWYRQAPGKERELVARISWDGGRTNYADSVKGRFTISRDNAKNTVYLQMNSLKPEDTAVYYCAAEKQHFGPYGYWGQGTQVTVSS
polyreactivity (PSR sort gate): low polyreactivity

QVQLVESGGGLVQAGGSLRLSCAASGSIFYYYSMGWYRQAPGKERELVATISSTTSTYADSVKGRFTISRDNAKNTVYLQMNSLKPEDTAVYYCSYDYWGQGTQVTVSS
polyreactivity (PSR sort gate): low polyreactivity

QVQLVESGGGLVQAGGSLRLSCAASGSTFTLYVMGWYRQATGKERELVAAISSNGGRTYYADSVKGRFTISRDNAKNTVYLQMTSLKPEDTAVYYCAKLVSLAGRIYGYWGQGTQVTVSS
polyreactivity (PSR sort gate): high polyreactivity

QVQLVESGGGLVQAGGSLRLSCAASGSTFGSYAMGWYRQAPGKEREFVATINTSNDRTYYADSVKGRFTISRDKAKNTVYLQMNSLKPEDTAVYYSNVLVYNVHTRGYWGQGTQVTVSS
polyreactivity (PSR sort gate): high polyreactivity
